Changes are numbered by the printed parent chain. Where two headings read alike, the source gives them in different places.
B1: <CSF-1R>10H2.2F12 (antibody, V domains shown)
VH: QVQLKQSGPGLVQPSQSLSITCTVSGFSLTTYGINWVRLSPGKGLEWLGMIWRGGNTDYNAAFMSRLTITKDNSKNHVFFQLNSLQPDDTAIYFCAKSGGLRLYYAMDYWGQGTSVTVSS
VL: DVVMTQPPLSLPVSLGDQASISCRSSQSLVHSNGNTYLHWYLQKPGQSPKLLIYKVSNRLSGVPDRFSGSGSGTDFTLKISRVEAEDLGVYFCSQSSHVPWTFGGGTKLEIRR
notes: Mouse monoclonal antibody from a hybridoma
B2: <CSF-1R>9D11.2E8 (antibody, V domains shown)
VH: DVKLVESGGGLVKLGGSLKLSCAASGFTFSSYYMSWIRQTPDKRLELVAAIKTNGDNFDYPDTVKGRFTISRDNAKNTLYLQMNSLKSEDTALYYCARSQLLRYYAMDYWGQGTSVTVSS
VL: B1 VL with P7T, L60F, R82S, R112K
notes: Mouse monoclonal antibody from a hybridoma (NMRI mice), captured by anti mouse Fc-gamma in SPR; also called deposited antibody DSM ACC2920

Legend:
[1] = target: mutant CSF-1R L301S Y969F (human) (UniProt P07333); test: cell-based or functional assay
Sequence of mutant CSF-1R L301S Y969F (human) (P07333 20-972 L301S/Y969F limits assumed): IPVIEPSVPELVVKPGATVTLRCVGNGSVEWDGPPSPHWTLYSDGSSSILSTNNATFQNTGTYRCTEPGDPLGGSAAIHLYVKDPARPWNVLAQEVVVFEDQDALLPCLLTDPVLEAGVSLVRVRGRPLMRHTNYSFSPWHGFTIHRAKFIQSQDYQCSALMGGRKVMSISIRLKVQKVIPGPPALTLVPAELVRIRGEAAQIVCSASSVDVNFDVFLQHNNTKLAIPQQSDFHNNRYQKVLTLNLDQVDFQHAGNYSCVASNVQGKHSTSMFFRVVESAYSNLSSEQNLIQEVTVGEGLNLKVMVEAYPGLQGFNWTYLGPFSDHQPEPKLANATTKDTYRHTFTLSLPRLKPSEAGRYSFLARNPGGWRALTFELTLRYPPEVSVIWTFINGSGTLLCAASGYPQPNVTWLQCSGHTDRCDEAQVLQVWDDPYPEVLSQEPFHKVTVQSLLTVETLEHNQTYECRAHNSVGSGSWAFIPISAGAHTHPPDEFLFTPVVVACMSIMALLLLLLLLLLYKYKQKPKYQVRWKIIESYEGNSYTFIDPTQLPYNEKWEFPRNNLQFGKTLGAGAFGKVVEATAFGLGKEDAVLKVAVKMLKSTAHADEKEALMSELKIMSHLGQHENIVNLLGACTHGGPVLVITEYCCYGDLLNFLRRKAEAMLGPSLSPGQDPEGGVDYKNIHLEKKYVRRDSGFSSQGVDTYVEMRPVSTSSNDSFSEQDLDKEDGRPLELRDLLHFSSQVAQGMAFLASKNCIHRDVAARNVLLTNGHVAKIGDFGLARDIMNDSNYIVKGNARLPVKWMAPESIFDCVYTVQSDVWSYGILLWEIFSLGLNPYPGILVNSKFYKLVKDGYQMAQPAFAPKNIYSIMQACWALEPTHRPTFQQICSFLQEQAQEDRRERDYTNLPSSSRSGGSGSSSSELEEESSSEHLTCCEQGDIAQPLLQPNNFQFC

[2] = target: huCSF-1R-huFc chimera (soluble extracellular domain) (human) (UniProt P07333); test: competition ELISA: antibody on plate-bound huCSF-1R-huFc, then 3 ng/ml CSF-1
Sequence of huCSF-1R-huFc chimera (soluble extracellular domain) (human) (P07333 20-517, change not shown): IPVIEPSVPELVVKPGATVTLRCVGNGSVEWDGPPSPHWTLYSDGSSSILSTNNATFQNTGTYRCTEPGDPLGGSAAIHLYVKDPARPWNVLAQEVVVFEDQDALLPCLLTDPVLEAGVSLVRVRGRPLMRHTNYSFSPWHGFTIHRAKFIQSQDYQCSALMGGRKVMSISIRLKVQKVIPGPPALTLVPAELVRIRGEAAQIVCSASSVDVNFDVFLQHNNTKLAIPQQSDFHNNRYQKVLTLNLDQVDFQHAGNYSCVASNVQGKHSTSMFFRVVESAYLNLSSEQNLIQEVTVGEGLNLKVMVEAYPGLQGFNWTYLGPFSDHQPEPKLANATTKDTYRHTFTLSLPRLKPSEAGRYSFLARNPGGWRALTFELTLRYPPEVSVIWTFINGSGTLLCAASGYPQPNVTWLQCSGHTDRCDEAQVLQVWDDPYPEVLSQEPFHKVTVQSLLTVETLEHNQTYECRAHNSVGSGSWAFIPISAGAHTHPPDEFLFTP

[3] = target: CSF-1R ECD (R&D-Systems 329-MR or in-house subcloned pCMV-presS-HisAvitag-hCSF-1R-ECD) (human) (UniProt P07333); test: SPR (BIACORE A100), 35 C, antibody captured, CSF-1R ECD in solution
Sequence of CSF-1R ECD (R&D-Systems 329-MR or in-house subcloned pCMV-presS-HisAvitag-hCSF-1R-ECD) (human) (P07333 20-517 limits assumed): as the sequence (P07333 20-517, change not shown) above

[4] = target: T1, full-length wildtype CSF-1R (wt CSF-1R) (human, UniProt P07333 20-972); test: cell-based or functional assay
T1 sequence (P07333 20-972 limits assumed): as the sequence (P07333 20-972 L301S/Y969F limits assumed) above, with S282L, F950Y counted along it

[5] = target: CSF-1R ECD (R&D-Systems 329-MR or in-house subcloned pCMV-presS-HisAvitag-hCSF-1R-ECD) (human) (UniProt P07333); test: SPR cross-competition, 25 C; second antibody on CSF-1R held by captured Antibody 1; competitor <CSF-1R>9D11.2E8
[6] = target: CSF-1R ECD (R&D-Systems 329-MR or in-house subcloned pCMV-presS-HisAvitag-hCSF-1R-ECD) (human) (UniProt P07333); test: SPR cross-competition, 25 C; second antibody on CSF-1R held by captured Antibody 1; competitor SC-02, clone 2-4A5
[7] = target: CSF-1R ECD (R&D-Systems 329-MR or in-house subcloned pCMV-presS-HisAvitag-hCSF-1R-ECD) (human) (UniProt P07333); test: SPR cross-competition, 25 C; second antibody on CSF-1R held by captured Antibody 1; competitor <CSF-1R>10H2.2F12
CSF-1R ECD (D1-D3) = target: T2, CSF-1R ECD (D1-D3) (human, UniProt P07333 20-296, limits assumed); test: as in WO2011070024, Example 10 (method not told here)
T2 construct: also called domains D1 to D3 of the extracellular domain of human CSF-1R
T2 sequence (P07333 20-296 limits assumed): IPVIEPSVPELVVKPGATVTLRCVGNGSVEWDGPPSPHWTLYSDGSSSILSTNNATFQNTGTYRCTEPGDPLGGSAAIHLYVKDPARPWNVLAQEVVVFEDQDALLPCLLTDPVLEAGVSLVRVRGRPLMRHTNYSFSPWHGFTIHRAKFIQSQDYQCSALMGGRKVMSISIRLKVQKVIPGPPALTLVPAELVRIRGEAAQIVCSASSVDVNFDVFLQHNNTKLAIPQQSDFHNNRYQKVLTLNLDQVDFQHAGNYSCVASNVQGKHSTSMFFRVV

[8] = target: T3, CSF-1R ECD (R&D-Systems 329-MR or in-house subcloned pCMV-presS-HisAvitag-hCSF-1R-ECD) (human, UniProt P07333 20-517); test: SPR (BIACORE A100), 35 C, antibody captured, CSF-1R ECD in solution
T3 construct: also called CSF-1R (R&D-Systems Cat. No. 329-MR); human CSF-1R Extracellular Domain (comprising domains D1 to D5)
T3 sequence (P07333 20-517 limits assumed): as the sequence (P07333 20-517, change not shown) above
Protocol: CSF-1R ECD (R&D-Systems 329-MR or in-house subcloned pCMV-presS-HisAvitag-hCSF-1R-ECD were added in various concentrations in solution. Association was measured by an CSF-1R-injection of 1.5 minutes at 35° C.; dissociation was measured by washing the chip surface with buffer for 10 minutes at 35° C. Anti CSF-IR SC-02, clone 2-4A5 (Santa Cruz Biotechnology, US; see also Sherr, C. J., et al., Cell 41 (1985) 665-676), which inhibits the ligand-receptor interaction, was used as reference control.

[9] = target: T1, full-length wildtype CSF-1R (wt CSF-1R); test: cell-based or functional assay; remark: listed apart in the source
[10] = target: T1, full-length wildtype CSF-1R (wt CSF-1R); test: cell-based or functional assay; remark: listed apart in the source
[11] = target: T4, huCSF-1R-huFc chimera (soluble extracellular domain) (human, UniProt P07333 20-517); test: competition ELISA: antibody on plate-bound huCSF-1R-huFc, then 3 ng/ml CSF-1
T4 construct: Captured on the plate by anti Fc-gamma; also called huCSF-1R ECDhuFc chimera; not shown: human Fc part
T4 sequence (P07333 20-517, change not shown): as above
Protocol: At the beginning, plates were coated with […] goat F(ab′)₂ biotinylated anti Fcγ (Jackson ImmunoResearch., Cat. No. 109-006-170) for 1 hour (h).
Thereafter the wells were blocked with PBS supplemented with 0.2% Tween®-20 and 2% BSA (Roche Diagnostics GmbH, DE) for 0.5 h. 75 ng/ml of huCSF-1R-huFc chimera (soluble extracellular domain) was immobilized to plate for 1 h. Then dilutions of purified antibodies in PBS/0.05% Tween20/0.5% BSA were incubated for 1 h. After adding a mixture of 3 ng/ml CSF-1 (Biomol, DE, Cat. No. 60530), 50 ng/ml biotinylated anti CSF-1 clone BAF216 (R&D Systems, UK) and 1:5000 diluted streptavidin HRP (Roche Diagnostics GmbH, DE, Cat. No. 11089153001) for 1 h the plates were washed 6 times with PBST. Anti CSF-IR SC-02, clone 2-4A5 (Santa Cruz Biotechnology, US), which inhibits the ligand-receptor interaction, was used as positive control. Plates were developed with freshly prepared BM Blue® POD substrate solution (BM Blue®:3,3″-5,5″-Tetramethylbenzidine, Roche Diagnostics GmbH, DE, Cat. No. 11484281001) for 30 minutes at RT. Absorbance was measured at 370 nm. […] Anti CSF-IR SC-02, clone 2-4A5 (Santa Cruz Biotechnology, US), which inhibits the ligand-receptor interaction, was used as reference control.

Row | Molecule | % Inhibition of growth of NIH3T3-wtCSF-1R cells, 10 µg/ml antibody [4] [%] | % inhibition of CSF-1 induced growth of BeWo cells, 10 µg/ml antibody concentration [4] [%] | % survival of NIH3T3-wtCSF-1R cells, 10 µg/ml antibody (CellTiterGlo) [4] [%] | IC50 CSF-1R Phosphorylation (CSF-1-induced, NIH3T3-CSF-1R cells, ELISA of lysate) [4] [µg/mL] | IC50 of inhibition of survival of human monocytes with huCSF-1 (CellTiterGlo) [4] [nM] | % Inhibition of growth of NIH3T3-mutant CSF-1R cells, 10 µg/ml antibody [1] [%] | % survival of NIH3T3-mutant CSF-1R cells, 10 µg/ml antibody (CellTiterGlo) [1] [%] | binding result (CSF-1R ECD (D1-D3)) | Kd [8] [nM] | koff [8] [s⁻¹] | kon [8] [M⁻¹ s⁻¹] | t1/2 [8] [min] | further results
1 | goat polyclonal anti-CSF-1R antibody ab10676 (abcam) |  |  |  |  |  |  |  |  |  |  |  |  | percentage of inhibition the growth of NIH3T3-mutant CSF-1R L301S Y969F recombinant cells, up to 20 µg/ml [1]: < 0%
2 | Anti CSF-1R SC-02, clone 2-4A5 (Santa Cruz Biotechnology, US) (antibody) | 38 | 40 | 62 | 0.412 | 2.4 | 34 | 66 |  |  |  |  |  | IC50 [2]: 0.0309 µg/mL; Kd [3]: 2.73 nM; koff [3]: 0.00139 s⁻¹; kon [3]: 509000 M⁻¹ s⁻¹; t1/2 [3]: 8.31 min; percentage (%) of expected binding response [5]: 37%; percentage (%) of expected binding response [6]: -2%; percentage (%) of expected binding response [7]: 42%
3 | B1 | 97 | 100 | 3 | 0.0445 | 0.6 | 65 | 35 | no binding | 0.78 | 0.0004 | 520000 | 28.6 | 
4 | B2 |  |  |  |  |  |  |  | no binding | 0.77 | 0.00036 | 470000 | 32 | IC50 CSF-1R Phosphorylation (CSF-1-induced, NIH3T3-CSF-1R cells, ELISA of lysate) [9]: 0.0728 µg/mL; IC50 of inhibition of survival of human monocytes with huCSF-1 (CellTiterGlo) [10]: 0.7 nM; IC50 [11]: 0.01 µg/mL
